Measured values reported in the nanobody polyreactivity screen of Harvey et al. (2022).

Test: yeast display, Sf9 membrane polyspecificity reagent, FACS + sequencing; frameworks hold sequencing errors
Outline: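 After 36–48 hours of galactose induction, yeast (Saccharomyces cerevisiae BJ5465) displaying a synthetic nanobody library were stained at 4 °C for 1 hour with 10% biotinylated, detergent-solubilized Sf9 membrane reagent. Streptavidin microbeads enriched the stained cells before FACS sorting into low and high (top ~1%) gates on anti-HA and streptavidin fluorescence. Each clone's polyreactivity label reflects its gate of origin.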

| Sequence | polyreactivity (PSR sort gate) |
| --- | --- |
| QVQLVESGGGLVKAGCSLRLTCAASARTFRWYAMGWYRQAPGKERELVATISWSSGRTRYADSVKGRFTISRDNANNTVYLQMNSLKPEETAVYYCNADQWDKSYDYWGQGSQVTVSS | high polyreactivity |
| QVQLVESGGGLVKAGGCLRISCAASGRIFGSYAMGWYREAPGIERELVASIRSGGRTKYADSVKGRFTISRDNAKKTVYLQMNSLKPEDTAVYYCDVPIQWDYGYWGQGTQVTVSS | low polyreactivity |
| QVQLVESGGGLVKAGGSIRISCAPSGRIFNQYGIGRNRQAPGKEMELVDAIRSGDSTNYADSVKGRFTISRDNAKNTFYLQMNRLKPEDTAVYFCARDRPGDYAGSDYWGQGTQVTVSS | low polyreactivity |
| QVQLVESGGGLVKAGGSLGLSCAASGSIFGVNAMGWYRQAPGKERELVAAISKRGGTTYYADSVKGRFTISRDNAKNTVYVQRHSLKPEDTAVYYCNAPYLWNYYGGRYDYWGQGTQVTVSS | high polyreactivity |
| QVQLVESGGGLVKAGGSLRISCAASGRIFGYNAMGWYRQAPGKERELVAVISTSGTITYYADSVKGRFTISRDNAKNTVYLQMNSLKPEDTAVYYCAARYYQRANGFGYWGQGTQVTVSS | low polyreactivity |
| QVQLVESGGGLVKAGGSLRLICDASGRTFYSYAMGWYRQAPGKERELVAAINTSGGRTHYADSVKGRFTISRDNAKYTVYLHMNSLKAEDTAVYYCAAERKNKYDYWGQGTQVTVSS | high polyreactivity |
| QVQLVESGGGLVKAGGSLRLRCAASGSIFRYYVMGWYRQAPGKERELVAAISGGSTYYADSVKGRFTISRDNAKNTVYLQLNSLKPEDTAVYYSAARGKRRSGGENYAYGYWGQGTQVTVSS | high polyreactivity |
| QVQLVESGGGLVKAGGSLRLSCAASGFNFGGNVMGWYRQAPGKERELVAAITYSGGSTYYADSVKGRFTISRDNAKNTVYLQMNSLKPEDTAVYYCAAVQRKYYIDPAYDYWGQGTQVTVSS | low polyreactivity |
| QVQLVESGGGLVKAGGSLRLSCAASGFTFGYYTMGWYRQAPGKERELVAAISSSGGSTHYADSVKGRFTISRDNAKNTVYLQMNSLKPEDTAVYYCAARYINRYPKAQPTDRSIYYWGQGTQVTVSS | high polyreactivity |
| QVQLVESGGGLVKAGGSLRLSCAASGLISAVYALGWYRQAPGKERELVAAITTSGGRTYYADSVKGRFTISRDNAKNTVYLQMNSLKPEDTAVYYCAAEHVRYLNPEFDYWGQGTQVTVSS | high polyreactivity |
| QVQLVESGGGLVKAGGSLRLSCAASGLTFYFYAMGWYRQAPGKERELVAGIRKRGGGTYYADSVKGRFTISRDNAKNTVYLQMNSLKPEDTAVYYCAKEPGWGRRSTTAYDYWGQGTQVTVSS | low polyreactivity |
| QVQLVESGGGLVKAGGSLRLSCAASGRIFGRYAMGWYRQAPGKEREFVAAISKRGGGTYYADSVKGRFTISRDNAKNTVYLQMNSLKPEDTAVYYCAVDNSPGFDDYDYWGQGTQVTVSS | high polyreactivity |
| QVQLVESGGGLVKAGGSLRLSCAASGRIFKYYAMGWYRQAPGKERELVAAISSVGSTNYADSVKGRFTISRDNAKNTVYLQMNSLKPEDTGVYYCAAPYQHYDVNYDSWGQGTQVTVSS | low polyreactivity |
| QVQLVESGGGLVKAGGSLRLSCAASGRIFTANAMGWYRQAPGKEREFVAAITTSDGTYYADSVKGRFTISRDNAKNTVYLQMNSLKPEDTAVYYGATDTATYPTAMDYWGQGTQVTVSS | low polyreactivity |
| QVQLVESGGGLVKAGGSLRLSCAASGRIFVGYGMGWYRQAPGKERELVAAITSSGGSTYYADSVKGRFTISRDNAKNTVYLQMNILKPEDTAVYYCAAERGYHVGGSGLYDYWGQGTQVNVSS | low polyreactivity |
| QVQLVESGGGLVKAGGSLRLSCAASGRIIEKYAMGWYRQAHGKEREFVAAIDWSGGSTYYADSVKGRFTISRDNAKNTVSLQKNSLKPEDTAVYYCAAYWYYEDGQSEARLYGYDYWGQGTQVTVSS | low polyreactivity |

| Sequence | polyreactivity (PSR sort gate) |
| --- | --- |
| QVQLVESGGGLVKAGGSLRLSCAASGRTFASYAMGWYRQAPGKERELVAVITRGGRTYYADSVKGRFTISRDNAKNTVYLQMNSLKPEDTAVYYCNAAYYSSSYLEDYWGQGTQVTVSS | high polyreactivity |
| QVQLVESGGGLVKAGGSLRLSCAASGRTFGDNAMGWYRQAPGKERELVAAIRWGGGSTYYADSVKGRFTISRDNAKNTVYLQMNSLKPEDTAVYYCAKKGWSSHDRAWYIYDYWGQGSQVTVSS | low polyreactivity |
| QVQLVESGGGLVKAGGSLRLSCAASGRTFSRYAMGWYRQAPGTEGEVVAAISYSGASTYYADSVKGRFTISRDNAKNTVYLQMNSLKPEDTAVSYCAARAPGPAPPQIRYGYWGQGTQVTVSS | high polyreactivity |
| QVQLVESGGGLVKAGGSLRLSCAASGRTFVYNAMGWYRQAPGKERELVADIDGGGDRTYYADSVKGRFTISRDNAKNKVFLQMNSLKPEDTAVYYCARDPGDTYYYSYPEGDYWGQGTQVTVSS | low polyreactivity |
| QVQLVESGGGLVKAGGSLRLSCAASGRTFYVNAMGWYRQAPGKEREFVAAISRRGGSTYYADSVKGRFTISRDNAKNTVYFQLNSLKPEDTAVYYCATGYHRWSSWALDYWGQGTQVTVSS | high polyreactivity |
| QVQLVESGGGLVKAGGSLRLSCAASGSIFDGNAMGWYRQAPGKERELVADISRGGSTYYADSVKGRFTISRDNAKNTVYLLMNSLKPEDTAVYYCNVEFFFWPYEYGYWGQGTQVTVSS | low polyreactivity |
| QVQLVESGGGLVKAGGSLRLSCAASGSIFQSNAMGWYRQAPGKERELVAAIRTSSGGGTYADSVKGRFTISRDNAKNTVYLQINSLKPEDTAVYDCNARKNNGGKWGYDYWGQGTQVTVSS | high polyreactivity |
| QVQLVESGGGLVKAGGSLRLSCAASGSIIGFYAMGWYILAPGKERELVAAITRGGGSTFYADSVKGRFTFSRDNAKNTVYLQMNSLKPEDTAVYYCAATVYRYHGPGYYYWGQGTQVTVSS | high polyreactivity |
| QVQLVESGGGLVKAGGSLRLSCAASGSISSGYVMGWYRQAPGKERELVASISYSGTSTYYADSVKGRFTISRDNAKNTVYLQMNSLKPEDTAVYYCAALSRRRFGYWGQGTQVTVSS | high polyreactivity |
| QVQLVESGGGLVKAGGSLRLSCAASGSTFERYAMGCYRQAPGKEMELVAAINWSGGGTYYADSVKGRFTISRDNAKNTVYLQMNSLKPVDTAVYYCAADSGTVVFSLWWYEYYYWGQGTQVTVSS | low polyreactivity |
| QVQLVESGGGLVKAGGSLRLSCAASGSTFRYYVMGWYRQAPGNERELVAAISRGGRTYYADSVKGRFTISRDNAKYSVYLQMNSLKPEDTAVYYCAVDYIVQSGSRIAGDYWGQGTQVTVSS | high polyreactivity |
| QVQLVESGGGLVKAGGSLRLSCAASGSTFVGYAMGWYRQAPGKEREIVAAITRGGSTNYADSVKGRFTISRDNAKNTVYLQMNSLKPEDTAVYYCAARDRREGFNFDYWGQGTQVTVSS | low polyreactivity |
| QVQLVESGGGLVKAGGSLRLSCAASGYNFIVYTMGWYRQAPGKERELVAAISSGGITDYADSVKGRFTISRDNAKNTDYLQMNSLNPEDTAVYYWGQGTQVTVSS | low polyreactivity |
| QVQLVESGGGLVKAGGSLRLSCAASGYTFLFNVMGWYRQAPGKEREIFATIRYSGGSTYYADSVKGRFTISRDNAKNTVYLQMNSLKPEDTAVYYCAARYAWYTSYCSRKYDYWGQGTQVTVSS | high polyreactivity |
| QVQLVESGGGLVKAGGSLRLSCAASGYTFRSYAMGWYRQAPGKEREKVARITFRGTSTYADSVKGRFTISRDNAKNTVYLQMNSLKPEESAVYYCNTSRAPWGNGYKRYDYWGQGTQVTVSS | low polyreactivity |
| QVQLVESGGGLVKAGGSLRLSCDASGSILWENAMGWYRQAPGKERELVATISVSGGGTYYADSVKGRFTISRDNAKNTVYLQMNSLKPEDTAVYYCNARYGNESQGWEDYWGKGTQVTVSS | low polyreactivity |
